# Where “and” joins values, the source holds several entries; their conditions need not be identical. Equal values may be shown once.
# Target: the molecule itself
# Assay: negative-stain EM
row,Protein,binding result
1,"FliF(G217P) (natural protein, Salmonella enterica serovar Typhimurium) MSATASTATQPKPLEWLNRLRANPRIPLIVAGSAAVAIVVAMVLWAKTPDYRTLFSNLSDQDGGAIVAQLTQMNIPYRFANGSGAIEVPADKVHELRLRLAQQGLPKGGAVGFELLDQEKFGISQFSEQVNYQRALEGELARTIETLGPVKSARVHLAMPKPSLFVREQKSPSASVTVTLEPGRALDEGQISAVVHLVSSAVAGLPPGNVTLVDQSPHLLTQSNTSGRDLNDAQLKFANDVESRIQRRIEAILSPIVGNGNVHAQVTAQLDFANKEQTEEHYSPNGDASKATLRSRQLNISEQVGAGYPGGVPGALSNQPAPPNEAPIATPPTNQQNAQNTPQTSTSTNSNSAGPRSTQRNETSNYEVDRTIRHTKMNVGDIERLSVAVVVNYKTLADGKPLPLTADQMKQIEDLTREAMGFSDKRGDTLNVVNSPFSAVDNTGGELPFWQQQSFIDQLLAAGRWLLVLVVAWILWRKAVRPQLTRRVEEAKAAQEQAQVRQETEEAVEVRLSKDEQLQQRRANQRLGAEVMSQRIREMSDNDPRVVALVIRQWMSNDHE",binds
2,"FliF(G217W) (natural protein, Salmonella enterica serovar Typhimurium) MSATASTATQPKPLEWLNRLRANPRIPLIVAGSAAVAIVVAMVLWAKTPDYRTLFSNLSDQDGGAIVAQLTQMNIPYRFANGSGAIEVPADKVHELRLRLAQQGLPKGGAVGFELLDQEKFGISQFSEQVNYQRALEGELARTIETLGPVKSARVHLAMPKPSLFVREQKSPSASVTVTLEPGRALDEGQISAVVHLVSSAVAGLPPGNVTLVDQSWHLLTQSNTSGRDLNDAQLKFANDVESRIQRRIEAILSPIVGNGNVHAQVTAQLDFANKEQTEEHYSPNGDASKATLRSRQLNISEQVGAGYPGGVPGALSNQPAPPNEAPIATPPTNQQNAQNTPQTSTSTNSNSAGPRSTQRNETSNYEVDRTIRHTKMNVGDIERLSVAVVVNYKTLADGKPLPLTADQMKQIEDLTREAMGFSDKRGDTLNVVNSPFSAVDNTGGELPFWQQQSFIDQLLAAGRWLLVLVVAWILWRKAVRPQLTRRVEEAKAAQEQAQVRQETEEAVEVRLSKDEQLQQRRANQRLGAEVMSQRIREMSDNDPRVVALVIRQWMSNDHE",binds
3,"FliF(G217A) (natural protein, Salmonella enterica serovar Typhimurium) MSATASTATQPKPLEWLNRLRANPRIPLIVAGSAAVAIVVAMVLWAKTPDYRTLFSNLSDQDGGAIVAQLTQMNIPYRFANGSGAIEVPADKVHELRLRLAQQGLPKGGAVGFELLDQEKFGISQFSEQVNYQRALEGELARTIETLGPVKSARVHLAMPKPSLFVREQKSPSASVTVTLEPGRALDEGQISAVVHLVSSAVAGLPPGNVTLVDQSAHLLTQSNTSGRDLNDAQLKFANDVESRIQRRIEAILSPIVGNGNVHAQVTAQLDFANKEQTEEHYSPNGDASKATLRSRQLNISEQVGAGYPGGVPGALSNQPAPPNEAPIATPPTNQQNAQNTPQTSTSTNSNSAGPRSTQRNETSNYEVDRTIRHTKMNVGDIERLSVAVVVNYKTLADGKPLPLTADQMKQIEDLTREAMGFSDKRGDTLNVVNSPFSAVDNTGGELPFWQQQSFIDQLLAAGRWLLVLVVAWILWRKAVRPQLTRRVEEAKAAQEQAQVRQETEEAVEVRLSKDEQLQQRRANQRLGAEVMSQRIREMSDNDPRVVALVIRQWMSNDHE",binds
4,"FliF(Δ214–220) (natural protein, Salmonella enterica serovar Typhimurium) MSATASTATQPKPLEWLNRLRANPRIPLIVAGSAAVAIVVAMVLWAKTPDYRTLFSNLSDQDGGAIVAQLTQMNIPYRFANGSGAIEVPADKVHELRLRLAQQGLPKGGAVGFELLDQEKFGISQFSEQVNYQRALEGELARTIETLGPVKSARVHLAMPKPSLFVREQKSPSASVTVTLEPGRALDEGQISAVVHLVSSAVAGLPPGNVTLVTQSNTSGRDLNDAQLKFANDVESRIQRRIEAILSPIVGNGNVHAQVTAQLDFANKEQTEEHYSPNGDASKATLRSRQLNISEQVGAGYPGGVPGALSNQPAPPNEAPIATPPTNQQNAQNTPQTSTSTNSNSAGPRSTQRNETSNYEVDRTIRHTKMNVGDIERLSVAVVVNYKTLADGKPLPLTADQMKQIEDLTREAMGFSDKRGDTLNVVNSPFSAVDNTGGELPFWQQQSFIDQLLAAGRWLLVLVVAWILWRKAVRPQLTRRVEEAKAAQEQAQVRQETEEAVEVRLSKDEQLQQRRANQRLGAEVMSQRIREMSDNDPRVVALVIRQWMSNDHE",binds
5,"FliFΔ(221–227) (natural protein, Salmonella enterica serovar Typhimurium) MSATASTATQPKPLEWLNRLRANPRIPLIVAGSAAVAIVVAMVLWAKTPDYRTLFSNLSDQDGGAIVAQLTQMNIPYRFANGSGAIEVPADKVHELRLRLAQQGLPKGGAVGFELLDQEKFGISQFSEQVNYQRALEGELARTIETLGPVKSARVHLAMPKPSLFVREQKSPSASVTVTLEPGRALDEGQISAVVHLVSSAVAGLPPGNVTLVDQSGHLLRDLNDAQLKFANDVESRIQRRIEAILSPIVGNGNVHAQVTAQLDFANKEQTEEHYSPNGDASKATLRSRQLNISEQVGAGYPGGVPGALSNQPAPPNEAPIATPPTNQQNAQNTPQTSTSTNSNSAGPRSTQRNETSNYEVDRTIRHTKMNVGDIERLSVAVVVNYKTLADGKPLPLTADQMKQIEDLTREAMGFSDKRGDTLNVVNSPFSAVDNTGGELPFWQQQSFIDQLLAAGRWLLVLVVAWILWRKAVRPQLTRRVEEAKAAQEQAQVRQETEEAVEVRLSKDEQLQQRRANQRLGAEVMSQRIREMSDNDPRVVALVIRQWMSNDHE",binds
6,"FliF(Δ165–167) (natural protein, Salmonella enterica serovar Typhimurium) MSATASTATQPKPLEWLNRLRANPRIPLIVAGSAAVAIVVAMVLWAKTPDYRTLFSNLSDQDGGAIVAQLTQMNIPYRFANGSGAIEVPADKVHELRLRLAQQGLPKGGAVGFELLDQEKFGISQFSEQVNYQRALEGELARTIETLGPVKSARVHLAMPKPSLEQKSPSASVTVTLEPGRALDEGQISAVVHLVSSAVAGLPPGNVTLVDQSGHLLTQSNTSGRDLNDAQLKFANDVESRIQRRIEAILSPIVGNGNVHAQVTAQLDFANKEQTEEHYSPNGDASKATLRSRQLNISEQVGAGYPGGVPGALSNQPAPPNEAPIATPPTNQQNAQNTPQTSTSTNSNSAGPRSTQRNETSNYEVDRTIRHTKMNVGDIERLSVAVVVNYKTLADGKPLPLTADQMKQIEDLTREAMGFSDKRGDTLNVVNSPFSAVDNTGGELPFWQQQSFIDQLLAAGRWLLVLVVAWILWRKAVRPQLTRRVEEAKAAQEQAQVRQETEEAVEVRLSKDEQLQQRRANQRLGAEVMSQRIREMSDNDPRVVALVIRQWMSNDHE",binds

# Target: the molecule itself
# Assay: cryo-EM structure
row,Protein,stoichiometry N
1,"FliF (natural protein, Salmonella enterica serovar Typhimurium, UniProt P15928 1-560, looked up) MSATASTATQPKPLEWLNRLRANPRIPLIVAGSAAVAIVVAMVLWAKTPDYRTLFSNLSDQDGGAIVAQLTQMNIPYRFANGSGAIEVPADKVHELRLRLAQQGLPKGGAVGFELLDQEKFGISQFSEQVNYQRALEGELARTIETLGPVKSARVHLAMPKPSLFVREQKSPSASVTVTLEPGRALDEGQISAVVHLVSSAVAGLPPGNVTLVDQSGHLLTQSNTSGRDLNDAQLKFANDVESRIQRRIEAILSPIVGNGNVHAQVTAQLDFANKEQTEEHYSPNGDASKATLRSRQLNISEQVGAGYPGGVPGALSNQPAPPNEAPIATPPTNQQNAQNTPQTSTSTNSNSAGPRSTQRNETSNYEVDRTIRHTKMNVGDIERLSVAVVVNYKTLADGKPLPLTADQMKQIEDLTREAMGFSDKRGDTLNVVNSPFSAVDNTGGELPFWQQQSFIDQLLAAGRWLLVLVVAWILWRKAVRPQLTRRVEEAKAAQEQAQVRQETEEAVEVRLSKDEQLQQRRANQRLGAEVMSQRIREMSDNDPRVVALVIRQWMSNDHE",33 and 34

# Source: publication doi:10.1101/2024.07.30.605930 (bioRxiv, 2024)
